Assay results published in patent US20050064507A1, “Determining kinase specificity” (priority 2003, published 2005).

Molecular target: T1, PKC-delta (Homo sapiens, UniProt Q05655)
T1 construct: purchased Calbiochem
Assay: In vitro kinase assay: peptide phosphorylation by PKC-delta
Assay type: biochemical
Settings: for Measured in vitro phosphorylation by PKC-delta: peptide concentration of 10 nM, percentage of phosphorylation of the best validating peptide substrate; for phosphorylation in the in vitro validating assay: PKC-delta
Description: One approach to validating a substrate identification method can involve, for example, comparison of substrate sites predicted by the method with in vitro phosphorylation results obtained using the selected kinase and peptides of known sequences. Such a systematic validation has been performed for the methods described herein. For example, a panel of seventy five peptides was synthesized, the phosphorylation observed for each peptide was experimentally measured, the amount of phosphorylation was quantified, the phosphorylation results for each peptide were normalized to the phosphorylation observed with the best substrate tested and these amounts were compared with predictions made according to the invention and according to the procedures provided by others. These peptides are referred to herein as proteomic peptides because their sequences are chosen from proteins in the human proteome; unlike the test sets employed herein, these peptides include no degenerate positions
Table 2 compares the present predictions with actual measurements of phosphorylation on validating peptides. The method of synthesis of the validating peptides was as described elsewhere in the application, and each included an N-terminal linker sequence of biotinylated-Lys-dansylated-Lys-Pro-Pro-Gly (SEQ ID NO:231). The length of the remaining “core” of the validating peptides ranged from 12-21 residues with one to five S/T residues. In vitro phosphorylation of these validating peptides was measured in the manner described herein. […] In vitro phosphorylation results for the validating peptides were expressed as normalized values, namely as a percentage of phosphorylation of the best validating peptide substrate in the group.
The conditions of the kinase assay and the amount of active kinase used varied with the kinase and with the accuracy needed. For a typical experiment, 5-20 ng of kinase was used per well and each peptide pool was assayed in duplicate wells. Note that the absolute amount of kinase used was not usually a critical parameter, because the desired information related to specificity of the kinase not its absolute activity, and robustness of the assay depends on comparisons of the same amount of kinase on different peptides. The combination of kinase concentration and assay duration was modified to assure that the stoichiometry of peptide phosphorylation never exceeded 5%. The choice of kinase buffer depended on the kinase being analyzed. For studies of PKC, 100 mM HEPES, 0.05% Triton-X100, 1 mM CaCl2, 20 mM MgCl2, 0.2 mg/ml phosphatidyl serine (Avanti Polar Lipids), PMA 100 ng/ml was typically used. The lipid stock was prepared by transferring 3 mg phosphatidyl serine into iced mixture of 450 μl water plus 50 μl of 10% Triton-X100, sonicating 10 times on ice for 1 sec each.
The kinase reaction mixture was assembled by sequential addition to a tube held on ice of: 5 μl peptide (100 μM for final concentration of 10 μM), 15 μl of kinase (typically 5 ng/well, in appropriate kinase buffer), 30 μl of ATP (1 uCi/well of ^32P-gamma ATP in a stock of 167 μM cold ATP in the kinase buffer; for final concentration for 100 μM ATP). The mixture was rapidly warmed to desired reaction temperature (30° C. for PKC) and incubated for the desired duration (usually 10 minutes). The kinase assay was terminated by transfer to 4° C. water batch, and rapid addition of an equal volume (50 μl) of stop solution [0.1M ATP+0.1M EDTA in water, pH 8].
The peptides were then captured from the reaction mixture by transfer to a Reacti-Bind Streptavidin High Binding Capacity Coated Plates (HBC) (Pierce Biotechnology) as follows. The HBC plates were pre-rinsed three times with PBS/Tween PBS/Tween20 0.05% (PBS/Tween). […]

T1 sequence (Q05655 whole entry): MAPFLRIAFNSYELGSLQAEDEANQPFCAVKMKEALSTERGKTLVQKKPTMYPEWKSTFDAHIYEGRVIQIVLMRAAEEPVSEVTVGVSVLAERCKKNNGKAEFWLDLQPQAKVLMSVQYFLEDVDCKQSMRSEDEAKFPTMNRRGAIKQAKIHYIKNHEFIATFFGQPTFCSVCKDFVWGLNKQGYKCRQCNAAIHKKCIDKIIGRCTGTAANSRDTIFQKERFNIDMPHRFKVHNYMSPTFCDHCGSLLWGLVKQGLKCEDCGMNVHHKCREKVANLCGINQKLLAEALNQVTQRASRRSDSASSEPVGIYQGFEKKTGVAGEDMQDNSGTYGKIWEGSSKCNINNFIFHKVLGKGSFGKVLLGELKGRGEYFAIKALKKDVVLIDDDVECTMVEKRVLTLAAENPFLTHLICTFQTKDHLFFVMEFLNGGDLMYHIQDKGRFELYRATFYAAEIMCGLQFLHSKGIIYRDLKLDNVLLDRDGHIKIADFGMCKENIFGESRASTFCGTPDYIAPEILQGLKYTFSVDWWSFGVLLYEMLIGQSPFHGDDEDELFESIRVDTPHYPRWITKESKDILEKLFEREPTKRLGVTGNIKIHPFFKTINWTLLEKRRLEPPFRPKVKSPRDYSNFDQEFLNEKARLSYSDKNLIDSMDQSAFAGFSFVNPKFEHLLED

Substance | Measured in vitro phosphorylation by PKC-delta [%] | phosphorylation in the in vitro validating assay
1 (HVRRRRGTFKRSKLRARD) [compound 1] | 100 | 
2 (KKKKRASFKRKSSKKG) [compound 2] | 76 | 
3 (NRKKKRTSFKRKA) [compound 3] | 66 | 
4 (KFARKSTRRSIRLPE) [compound 4] | 52 | highly phosphorylated
5 (RQRKRKLSFRRRTDKD) [compound 5] | 42 | 
6 (PRLIRRGSKKRPAR) [compound 6] | 40 | 
7 (RKIPKRPGSVHRTPSRQ) [compound 7] | 38 | highly phosphorylated
8 (AARKKRISVKKKQEQ) [compound 8] | 35 | 
9 (QKKSRLRRRASQLKI) [compound 9] | 34 | highly phosphorylated
10 (AQIVKRASLKRGKQ) [compound 10] | 32 | 
11 (KKKFRTPSFLKKSKK) [compound 11] | 25 | highly phosphorylated
12 (KKKKKRFSFKKSFKL) [compound 12] | 24 | 
13 (WKGKRRSKARKKRK) [compound 13] | 22 | 
14 (EYLERRASRRRAV) [compound 14] | 20 | 
15 (RGFLRSASLGRRASFHLE) [compound 15] | 18 | 
16 (DGQKRKKSLRKKLD) [compound 16] | 17 | 
17 (AGWRKKTSFRKPKED) [compound 17] | 17 | 
18 (KKRFSFKKSFKLSGFSFKKN) [compound 18] | 16 | 
19 (AGSFKRNSIKKIV) [compound 19] | 14 | 
20 (GAPPRRSSIRNAH) [compound 20] | 13 | 
21 (KLAVGRHSFSRRSGV) [compound 21] | 12 | 
22 (LLKKRDSFRTPRDSKLE) [compound 22] | 12 | 
23 (QKRHARVTVKYDRRE) [compound 23] | 10 | 
24 (EKIKRSSLKKVDSLKK) [compound 24] | 10 | 
25 (EILSRRPSYRKILND) [compound 25] | 9 | 

Substance | Measured in vitro phosphorylation by PKC-delta [%] | phosphorylation in the in vitro validating assay
26 (ALRRPSLRREADD) [compound 26] | 9 | 
27 (KKRKKKSSKSLAHA) [compound 27] | 8 | 
28 (KRPGKKGSNKRPGKR) [compound 28] | 8 | 
29 (RKNDRKKRYTVVGNP) [compound 29] | 8 | 
30 (KEVVRTDSLKGRRGR) [compound 30] | 7 | 
31 (RKKRKKKSSKSLAHAGVALA) [compound 31] | >5 | 
32 (KATTKKRTLRKNDRK) [compound 32] | >5 | 
34 (EGGDRRASGRRK) [compound 34] | 5 | 
35 (GLLDRKGSWKKLDDM) [compound 35] | 4 | 
36 (GENVLKKSMKSRVKG) [compound 36] | 4 | 
37 (AYIERMNSIHRDLRA) [compound 37] | 3 | 
38 (NYLRRRLSDSNFMAN) [compound 38] | 3 | 
39 (LLGSGKVTDRKAL) [compound 39] | 3 | 
40 (NMEAKKLSKDRMKKY) [compound 40] | 3 | 
41 (FVHQASFKFGQGD) [compound 41] | 3 | 
42 (QPEGLRSLKKPDRKKR) [compound 42] | 3 | 
43 (AWVTVHEKKSSRKSEYL) [compound 43] | 3 | 
44 (VLAKKGTSKTPVPE) [compound 44] | 2 | 
45 (VFREHQRSGSYHVRE) [compound 45] | 2 | 
46 (GQAWGRQSPRRLED) [compound 46] | 2 | 
47 (ARIIGEKSFRRSVVG) [compound 47] | 2 | 
48 (AVNSRRRAGQKKK) [compound 48] | 2 | 
49 (VQQLLRSSNRRLEQL) [compound 49] | 2 | 
50 (ENLRRVATDRRHLGH) [compound 50] | 2 | 
51 (DLLGKKVSTKTLSEDD) [compound 51] | 2 | 

Substance | Measured in vitro phosphorylation by PKC-delta [%] | phosphorylation in the in vitro validating assay
52 (HKHSPEKRGSERKEG) [compound 52] | 2 | 
53 (AKNLKTLQKRDSFIG) [compound 53] | 2 | 
54 (ENLRKVTTDKKSLAY) [compound 54] | 2 | 
55 (DDMEHKTLKITDFG) [compound 55] | 2 | 
56 (EARLGAASLKFGARD) [compound 56] | 2 | 
57 (KNVVKLLSSRRTQDR) [compound 57] | 2 | 
58 (RVKLGTLRRPEGP) [compound 58] | 1 | 
59 (PVNKRSKYTMMK) [compound 59] | 1 | 
60 (LRRKHLGTLNFGGIR) [compound 60] | 1 | poorly phosphorylated
61 (VDNILKKSNKKLEEL) [compound 61] | 1 | 
62 (AVRDMRQTVAVGVIK) [compound 62] | 1 | 
63 (QRQERIFSKRRGQDF) [compound 63] | 1 | 
64 (ALRAPKPTLRYFTTERF) [compound 64] | 1 | poorly phosphorylated
65 (IKVTHKATGKVMVMK) [compound 65] | 1 | 
66 (GFAKKIGSGQKTWTF) [compound 66] | 1 | poorly phosphorylated
67 (AINSRETMFHKERFK) [compound 67] | 1 | 
68 (RGEGHKPSIAHRDFK) [compound 68] | 1 | 
69 (LALTARESSVRSGGAG) [compound 69] | 1 | poorly phosphorylated
70 (HERKGSDKRGDNQ) [compound 70] | 1 | 
71 (RRRQKRRTGALVLSRGGKR) [compound 71] | 1 | 
72 (LTDPKEDPIYDEPEGLAPVPG) [compound 72] | 0 | 
73 (IDYYKKTTNGRLPVK) [compound 73] | 0 | 
74 (IDYYKKTSNGRLPVK) [compound 74] | 0 | 
